Test results: the supplement of paper PMC12042874
± gives the uncertainty stated by the source.

Assay: amyloid nucleation score (Sup35N fusion, yeast selection) (log enrichment); library NNK3; higher = more nucleation; inactive = no reads after selection
How it was run: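 On medium lacking adenine and uracil, psi-negative yeast expressing peptides of 20 random codons fused to Sup35N were grown 7 days at 30°C after a 24-hour induction with 100 μM copper sulfate. Illumina sequencing of input and output plasmid inserts gave the reads, and sequences under 100 input reads were excluded. The nucleation score is the DiMSum log enrichment of output over input reads, centred on the mode score of non-aggregating sequences.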

Substance	amyloid nucleation score
ICEQKEFPYVEQWLD	inactive
ICGIDSLN	inactive
ICIFVFFRYWHVVHVT	inactive
ICINVESIKPMRWQAMI	inactive
ICKNYSVLVLRFGGSEGPTV	1.52 ± 0.1
ICNSY	inactive
ICPTWELNIRP	inactive
ICRQS	inactive
ICSSFDGQ	0.458 ± 0.2
ICSVVIEGVFLRRLWDSRVS	inactive
ICWLVMEVLG	inactive
ICYTALGCYISSQFSGWGRM	1.12 ± 0.088
IDCCWSCV	0.16 ± 0.34
IDFRFFQPQAVCGNLSCYRE	0.227 ± 0.23
IDIVCAF	inactive
IDLKGLGLYSTSEVWARQQK	inactive
IDLSAMFFAFFVIFVFVWIW	inactive
IDLTTDSLDM	inactive
IDNMAVIYWTVNFVCRVW	1.26 ± 0.085
IDRFHYSLTTDT	inactive
IDSAEASCIGCLVRQCADPI	inactive
IDSNGYVLLVRDGREKVVRC	0.204 ± 0.29
IDVTQERRVGDSTCALGTH	-0.168 ± 0.73
IEDQHLHVVLTGWGSKLSGH	inactive
IEIFEFFSRSSNRSQPGAPL	inactive
IELVFAHVYCGMRWNSEASR	1.4 ± 0.084
IERCVFAFCYCSLGQSAKSF	1.49 ± 0.14

Substance	amyloid nucleation score
IERSDSVSWRGVLVGIEMKV	inactive
IESKLDAYTLCVGSSNWLWM	inactive
IEVQFENFSCSR	inactive
IEYRKITKLIKLGISGVERS	-0.978 ± 1.3
IFFAMISCTYLLDCVDRNWG	inactive
IFIYGPLPPVRCYHYDWWNL	inactive
IFLFSSRCALDNIVEPWFFW	inactive
IFMITDQ	inactive
IFNALCYTWESRFLRTEVVS	inactive
IFNGRDNLQLDVWLGGYFLV	inactive
IFQKIECLTGMGIVGCSTSM	inactive
IFSNRGFQLCWFSYMLSVHT	inactive
IFWHQRRLMTCCNKYTFGYG	inactive
IGFAD	inactive
IGGVAGQRGSIA	inactive
IGKFPDRCTFVQTKYFYVRS	1.48 ± 0.075
IGKRIFKLCVMYGYYLHLNF	inactive
IGKVLDAFGE	inactive
IGMTRGMGLVVFYSRYMWDD	inactive
IGRISMAIMWIGVGVA	inactive
IGSAISGNYYTINNCDFDTS	inactive
IGSAVIWVFFCNGSGVGDGT	2.08 ± 0.09
IGSYIKEGCAITMSRPLFKG	inactive
IGTTEQ	inactive
IGWGVQFELFGTWRVEIPLV	inactive
IGWKEVSA	-0.006 ± 0.35
IGYGGSIPRHSTCDVSLQRW	inactive

Substance	amyloid nucleation score
IHIFTLKYKVRARKLATTIS	inactive
IHKLHYIYGGLMSTWLLEDT	inactive
IHMPHLGIGSKKRVSVRGDA	inactive
IHWGRAGATEAAST	inactive
IICIYKIPKFTTRKLILRVY	inactive
IIIRGSSVLVVRLNDEGYVL	0.216 ± 0.63
IIKDLPVCVDERASYAEVMS	inactive
IILFKCWCKWEASGSATIVD	inactive
IIMRDYTAMCI	inactive
IIMSQMVYIVRDIHFVCWVI	inactive
IIPRIALPVCFVPYGLRRSS	inactive
IIRALARFLVNVGV	inactive
IISDQEFSYETCDFSYFCKG	inactive
IISQAQFSVAYLLCWRQCYV	1.2 ± 0.082
IISVIVTVYR	inactive
IIVFLRLSPELCVMCVRR	inactive
IIVMDCNGKLNGINHWVRVD	inactive
IKCIPFCDVGWSLTVLRYVT	inactive
IKSCGVNNIAFLQVCHRWCS	1.6 ± 0.082
IKSHVAIDSVPER	inactive
IKWVCTEVRSGCLSVDCVLV	inactive
ILAVAPVVPGVVLGRNCRAR	inactive
ILCVFVYRSRAESYEL	0.446 ± 0.23
ILFKLVKWSAMSFLRCRLFS	-0.797 ± 1.4
ILFLSLRSYSLNGFSDIMYY	inactive
ILIDSGSTLFSIIFQGLLLI	inactive
